B1: SIRT1-FL (endogenous full length SIRT1) (enzyme, human, UniProt Q96EB6 1-747, looked up)
chain: MADEAALALQPGGSPSAAGADREAASSPAGEPLRKRPRRDGPGLERSPGEPGGAAPEREVPAAARGCPGAAAAALWREAEAEAAAAGGEQEAQATAAAGEGDNGPGLQGPSREPPLADNLYDEDDDDEGEEEEEAAAAAIGYRDNLLFGDEIITNGFHSCESDEEDRASHASSSDWTPRPRIGPYTFVQQHLMIGTDPRTILKDLLPETIPPPELDDMTLWQIVINILSEPPKRKKRKDINTIEDAVKLLQECKKIIVLTGAGVSVSCGIPDFRSRDGIYARLAVDFPDLPDPQAMFDIEYFRKDPRPFFKFAKEIYPGQFQPSLCHKFIALSDKEGKLLRNYTQNIDTLEQVAGIQRIIQCHGSFATASCLICKYKVDCEAVRGDIFNQVVPRCPRCPADEPLAIMKPEIVFFGENLPEQFHRAMKYDKDEVDLLIVIGSSLKVRPVALIPSSIPHEVPQILINREPLPHLHFDVELLGDCDVIINELCHRLGGEYAKLCCNPVKLSEITEKPPRTQKELAYLSELPPTPLHVSEDSSSPERTSPPDSSVIVTLLDQAAKSNDDLDVSESKGCMEEKPQEVQTSRNVESIAEQMENPDLKNVGSSTGEKNERTSVAGTVRKCWPNRVAKEQISRRLDGNQYLFLPPNRYIFHGAEVYSDSEDDVLSSSSCGSNSDSGTCQSPSLEEPMEDESEIEEFYNGLEDEPDVPERAGGAGFGTDGDDQEAINEAISVKQEVTDMNYPSNKS
B4: Myc-tagged SIRT1-ΔExon8 (SIRT1 Δ8 tagged at the C-terminus with c-Myc and 6x His) (enzyme)
chain: ADEAALALQPGGSPSAAGADREAASSPAGEPLRKRPRRDGPGLERSPGEPGGAAPEREVPAAARGCPGAAAAALWREAEAEAAAAGGEQEAQATAAAGEGDNGPGLQGPSREPPLADNLYDEDDDDEGEEEEEAAAAAIGYRDNLLFGDEIITNGFHSCESDEEDRASHASSSDWTPRPRIGPYTFVQQHLMIGTDPRTILKDLLPETIPPPELDDMTLWQIVINILSEPPKRKKRKDINTIEDAVKLLQECKKIIVLTGAGVSVSCGIPDFRSRDGIYARLAVDFPDLPDPQAMFDIEYFRKDPRPFFKFAKEIYPGQFQPSLCHKFIALSDKEGKLLRNYTQNIDTLEQVAGIQRIIQCHGSFATASCLICKYKVDCEAVRGDIFNQVVPRCPRCPADEPLAIMKPEIVFFGENLPEQFHRAMKYDKDEVDLLIVIGSSLKVRPVALIPSNQYLFLPPNRYIFHGAEVYSDSEDDVLSSSSCGSNSDSGTCQSPSLEEPMEDESEIEEFYNGLEDEPDVPERAGGAGFGTDGDDQEAINEAISVKQEVTDMNYPSNKS
notes: Transiently expressed in HCT116 cells, about 95 kDa; Found phosphorylated at S27 and S47 in lysates; also called SIRT1-delta exon 8; SIRT1 D8; not shown: C-terminal c-Myc and 6x His tags

Tests used:
[1] = target: T1, p53 (endogenous, HCT116 p53+/+ cells) (human, UniProt P04637 1-393); assay: cell-based or functional assay
T1 sequence (P04637 whole entry): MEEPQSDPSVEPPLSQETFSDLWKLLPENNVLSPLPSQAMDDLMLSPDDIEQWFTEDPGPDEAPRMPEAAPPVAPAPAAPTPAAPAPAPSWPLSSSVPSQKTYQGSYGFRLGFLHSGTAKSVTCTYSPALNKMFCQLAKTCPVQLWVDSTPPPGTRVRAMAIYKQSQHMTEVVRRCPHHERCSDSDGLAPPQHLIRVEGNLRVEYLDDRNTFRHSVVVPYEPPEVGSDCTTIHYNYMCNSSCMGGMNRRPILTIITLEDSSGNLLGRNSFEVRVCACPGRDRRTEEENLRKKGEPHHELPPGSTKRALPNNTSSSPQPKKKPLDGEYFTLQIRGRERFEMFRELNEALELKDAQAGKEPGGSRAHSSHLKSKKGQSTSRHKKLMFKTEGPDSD

[2] = target: B4; assay: pull-down / co-immunoprecipitation from HCT116 cells
Experimental: (§1) SIRT1-ΔExon8 was exogenously expressed in HCT116 cells and immuno-precipitated. […] SIRT1-ΔExon8 and Flag-tagged AROS were exogenously expressed in HCT116 cells, and the Flag epitope was immuno-precipitated. In the eluate, AROS was detected by probing with an anti-AROS antibody (Methods), while the interaction with SIRT1-ΔExon8 was probed with anti-c-Myc antibody (9E10, Santa Cruz). C. […] SIRT1-ΔExon8 was exogenously expressed in HCT116 cells and cells were harvested 24 h post-transfection. Cell lysates were immuno-precipitated with anti-c-Myc antibody (9E10, Santa Cruz). Western-blotting was performed with a C-terminal anti-SIRT1 antibody (residues 448-747, H300, Santa Cruz) which detects both endogenous SIRT1-FL and SIRT1-ΔExon8 (see: FIG. 2a). * indicates a non-specific band;

[3] = target: T1, p53 (endogenous, HCT116 p53+/+ cells); assay: immunoprecipitation of exogenous SIRT1 Δ2-9 with His antibody, blotted with p53 antibody
[4] = target: B1; assay: immunoprecipitation with anti-c-Myc 9E10 from HCT116 lysates, Western blot with H300 anti-SIRT1
Experimental: as §1

[5] = target: T2, DBC-1 (endogenous, HCT116 cells) (human, UniProt Q8N163 1-923); assay: immunoprecipitation of exogenous SIRT1-ΔExon8 from HCT116 cells, eluate probed with anti-DBC-1
T2 construct: Endogenous protein in cell lysate, probed with anti-DBC-1; also called endogenous DBC-1
T2 sequence (Q8N163 whole entry): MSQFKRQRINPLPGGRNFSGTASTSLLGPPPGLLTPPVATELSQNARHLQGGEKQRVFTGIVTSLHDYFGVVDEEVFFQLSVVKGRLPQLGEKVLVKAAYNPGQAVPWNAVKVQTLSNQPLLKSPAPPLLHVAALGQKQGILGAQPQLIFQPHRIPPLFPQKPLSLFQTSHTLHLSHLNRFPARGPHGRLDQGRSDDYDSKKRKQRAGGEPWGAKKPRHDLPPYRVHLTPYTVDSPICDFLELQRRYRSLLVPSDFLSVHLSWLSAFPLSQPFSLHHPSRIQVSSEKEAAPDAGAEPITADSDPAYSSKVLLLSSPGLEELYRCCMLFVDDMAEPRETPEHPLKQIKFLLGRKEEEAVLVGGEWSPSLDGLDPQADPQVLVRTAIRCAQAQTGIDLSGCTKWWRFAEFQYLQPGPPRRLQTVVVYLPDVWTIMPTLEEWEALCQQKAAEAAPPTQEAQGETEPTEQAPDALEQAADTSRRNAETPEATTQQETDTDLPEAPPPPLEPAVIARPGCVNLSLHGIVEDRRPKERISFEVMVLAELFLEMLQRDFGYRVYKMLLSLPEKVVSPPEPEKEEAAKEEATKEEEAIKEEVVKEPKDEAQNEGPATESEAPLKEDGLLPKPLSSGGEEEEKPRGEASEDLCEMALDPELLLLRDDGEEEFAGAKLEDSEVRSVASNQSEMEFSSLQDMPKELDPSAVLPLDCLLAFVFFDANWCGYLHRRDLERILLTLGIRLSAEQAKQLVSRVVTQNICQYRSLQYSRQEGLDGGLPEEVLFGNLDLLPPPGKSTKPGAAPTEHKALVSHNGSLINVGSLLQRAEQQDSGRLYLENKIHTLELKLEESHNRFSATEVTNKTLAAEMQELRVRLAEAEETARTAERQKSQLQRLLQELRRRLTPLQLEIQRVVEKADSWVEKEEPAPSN
Experimental: as §1

With B1 the “p53 acetylation levels following SIRT1 FL depletion (siRNA) under basal conditions in HCT116 cells, immunoblot” value [1] was > 50 fold.

B2: Flag-tagged AROS (other, UniProt Q86WX3 1-136, looked up, not shown: small tags and cut ends)
chain: MSAALLRRGLELLAASEAPRDPPGQAKPRGAPVKRPRKTKAIQAQKLRNSAKGKVPKSALDEYRKRECRDHLRVNLKFLTRTRSTVAESVSQQILRQNRGRKACDRPVAKTKKKKAEGTVFTEEDFQKFQQEYFGS
notes: its order in the chain is arbitrary
B2: binds [2].

B3: Myc-His-SIRT1 Δ2-9 (MH-SIRT1 Δ2-9) (other, not shown: small tags and cut ends)
chain: MADEAALALQPGGSPSAAGADREAASSPAGEPLRKRPRRDGPGLERSPGEPGGAAPEREVPAAARGCPGAAAAALWREAEAEAAAAGGEQEAQATAAAGEGDNGPGLQGPSREPPLADNLYDEDDDDEGEEEEEAAAAAIGYRDNLLFVLVAVTVIVGHARVQV
notes: Expressed in HCT116 p53+/+ cells from pcDNA3.1; Serine 47 found phosphorylated; also called exogenous SIRT1 Δ2-9
B3: binds [3].

B4: no binding [4]; no binding [5].

Source: US20120178796A1 (published 2012)
